Reference: patent US20180057604A1 (Genentech, published 2018)
Like-named read-outs stand apart in the source and are kept apart here.

T1: cyno TfR extracellular domain (analogous construct to human TfR ecd) (cynomolgus monkey, UniProt Q5RDH6 87-760 (Pongo abelii entry))
T1 construct: also called cynoTfR ecd
T1 chain: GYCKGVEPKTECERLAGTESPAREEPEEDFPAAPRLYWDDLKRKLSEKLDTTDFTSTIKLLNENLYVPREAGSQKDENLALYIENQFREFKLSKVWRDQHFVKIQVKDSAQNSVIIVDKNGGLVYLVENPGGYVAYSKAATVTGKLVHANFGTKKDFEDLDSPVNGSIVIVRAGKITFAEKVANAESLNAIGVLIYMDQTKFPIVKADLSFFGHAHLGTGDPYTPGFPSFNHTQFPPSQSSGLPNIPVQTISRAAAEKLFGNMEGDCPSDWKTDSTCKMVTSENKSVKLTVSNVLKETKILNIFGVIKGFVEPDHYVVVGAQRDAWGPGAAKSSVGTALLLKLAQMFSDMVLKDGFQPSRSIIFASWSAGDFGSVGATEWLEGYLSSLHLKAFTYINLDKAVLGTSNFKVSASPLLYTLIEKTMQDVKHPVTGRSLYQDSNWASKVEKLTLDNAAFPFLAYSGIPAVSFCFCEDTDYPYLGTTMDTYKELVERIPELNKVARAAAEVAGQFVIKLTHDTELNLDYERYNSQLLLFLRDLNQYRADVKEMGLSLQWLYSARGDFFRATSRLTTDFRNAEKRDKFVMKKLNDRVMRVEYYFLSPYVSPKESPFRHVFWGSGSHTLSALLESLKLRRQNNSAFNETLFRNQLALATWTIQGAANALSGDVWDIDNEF


Experiments:
[1] = target: T2, murine BACE1 ECD; test: Octet, pH 7.5
T2 construct: analyte of the Octet assay (200 nM) and enzyme of the first short substrate assay
Experimental: (§1) Anti-BACE1 antibodies were loaded onto anti-human capture (AHC) sensors (tips) followed by 60 seconds baseline in assay buffer. […] Tips were transferred to assay buffer for 5 minutes, 30 minutes, or 120 minutes depending on the off-rate, for off-rate measurement. Assay buffer was either PBS+0.1% BSA, pH 7.5; or PBS+0.1% BSA, pH 5.0. Kinetics were analyzed using a 1:1 binding model.

[2] = target: T3, human BACE1 ECD; test: Octet, pH 7.5
T3 construct: analyte of the Octet assay (200 nM) and enzyme of the first short substrate assay; also called human BACE1 extracellular domain
Experimental: as §1

[3] = target: T2, murine BACE1 ECD; test: Octet, pH 5.0
Experimental: as §1

[4] = target: T3, human BACE1 ECD; test: Octet, pH 5.0
Experimental: as §1

[5] = target: BACE1 in primary mouse cortical neurons (mouse, UniProt P56818 46-501); test: cell-based or functional assay
[6] = target: T1, cyno TfR extracellular domain …; test: ELISA, IgG
Experimental: (§2) Affinity variants were generated by making individual alanine substitutions in CDR-L3 or CDR-H3 using standard techniques. These variants were screened as IgG by ELISA and SPR to identify positions important for binding to human and cyno TfR; the monovalent affinity of selected variants as Fab was also determined. […] Plates were washed with PBS/0.05% Tween 20 and blocked using Superblock blocking buffer in PBS (Thermo Scientific, Hudson, N.H.). Supernatants containing expressed IgG were diluted serially 1:5 and added to the plate for 1 h. […] Plates were washed with PBS/0.05% Tween 20 and 1:1000 diluted HRP-Goat-anti kappa (Southern Biotech) was added the plate and incubated for 1 h at room temperature. Plates were washed with PBS/0.05% Tween 20 and detected using TMB substrate (BioFX Laboratories, Owings Mills).

[7] = target: T4, human TfR extracellular domain with N-terminal His tag (human, UniProt P02786 89-760); test: ELISA, IgG
T4 construct: Biotinylated in some assays; also called huTfR; HuTfR
Experimental: as §2

[8] = target: T4, human TfR extracellular domain with …; test: SPR steady state, IgG
Experimental: (§3) Antibody affinities were measured using surface plasmon resonance (“SPR”) (Biacore™, GE Healthcare). Anti-His antibody (Qiagen) was coupled onto four different flow cells of a BIACORE™ CM5 sensor chip (Biacore, Inc., Piscataway, N.J.) at between 6000 and 8000 RU. Immobilization was achieved by random coupling through amino groups using a protocol provided by the manufacturer. 10×HBS-P (Biacore, Inc., Piscataway, N.J.) was diluted in water and served as the dilution and running buffer. Purified human or cyno TfR was captured, followed by a 3-fold dilution series of IgG or Fab that was injected at a flow rate of 30 ml/min using the single cycle kinetics method. Affinity constants were determined using a simple 1:1 Langmuir binding model or using a steady state model when kₒₙ or koff was beyond the detection limit. The equilibrium dissociation constant (KD) was calculated as the ratio of association rate constant (kₒₙ) and dissociation rate constant (koff).
(§4) These variants were screened as IgG by ELISA and SPR to identify positions important for binding to human and cyno TfR; the monovalent affinity of selected variants as Fab was also determined. […] Plates were washed with PBS/0.05% Tween 20 and blocked using Superblock blocking buffer in PBS (Thermo Scientific, Hudson, N.H.). Supernatants containing expressed IgG were diluted serially 1:5 and added to the plate for 1 h. […] Plates were washed with PBS/0.05% Tween 20 and 1:1000 diluted HRP-Goat-anti kappa (Southern Biotech) was added the plate and incubated for 1 h at room temperature. Plates were washed with PBS/0.05% Tween 20 and detected using TMB substrate (BioFX Laboratories, Owings Mills). Binding was also assessed by SPR, as described above.

[9] = target: T4, human TfR extracellular domain with …; test: SPR SCK 1:1 fit, IgG
Experimental: as §3, §4

[10] = target: T4, human TfR extracellular domain with …; test: SPR, Fab
Experimental: as §3, §4

[11] = target: T1, cyno TfR extracellular domain …; test: SPR, TfR captured by anti-His, Fab injected;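 for koff: single cycle kinetics with a Fab dilution series, fitted by a one-to-one Langmuir model or a steady state model, KD taken as koff over kon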;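 for kon: single cycle kinetics with a Fab dilution series, fitted by a one-to-one Langmuir model or a steady state model, KD taken as koff over kon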
Experimental: as §3
(§5) In both cases, the SPR experiments were performed as described above.

[12] = target: T1, cyno TfR extracellular domain …; test: SPR, TfR captured by anti-His, Fab injected;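 for koff: single cycle kinetics with a Fab dilution series, fitted by a one-to-one Langmuir model or a steady state model, KD taken as koff over kon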
Experimental: as §3, §5

[13] = target: T4, human TfR extracellular domain with …; test: SPR, TfR captured by anti-His, Fab injected;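 for koff: single cycle kinetics with a Fab dilution series, fitted by a one-to-one Langmuir model or a steady state model, KD taken as koff over kon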
Experimental: as §3, §5

[14] = target: T1, cyno TfR extracellular domain …; test: SPR, KD on cyno TfR over KD on human TfR
Experimental: as §3, §5

BACE1 in primary mouse cortical neurons, sequence (P56818 46-501): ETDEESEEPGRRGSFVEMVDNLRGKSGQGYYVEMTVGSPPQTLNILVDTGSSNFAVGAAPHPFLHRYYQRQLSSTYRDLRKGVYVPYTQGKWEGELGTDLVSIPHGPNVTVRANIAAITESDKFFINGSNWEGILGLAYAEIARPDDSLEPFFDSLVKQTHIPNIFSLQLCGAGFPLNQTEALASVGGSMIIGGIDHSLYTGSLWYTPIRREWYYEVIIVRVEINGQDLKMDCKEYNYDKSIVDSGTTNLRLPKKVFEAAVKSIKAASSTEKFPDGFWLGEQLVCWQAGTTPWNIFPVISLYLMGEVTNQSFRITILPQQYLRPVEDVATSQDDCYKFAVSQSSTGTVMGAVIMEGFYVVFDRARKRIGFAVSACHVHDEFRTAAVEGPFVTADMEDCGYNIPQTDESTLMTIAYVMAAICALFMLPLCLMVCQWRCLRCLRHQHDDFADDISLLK
T3 sequence (single chain, as listed by the source limits assumed): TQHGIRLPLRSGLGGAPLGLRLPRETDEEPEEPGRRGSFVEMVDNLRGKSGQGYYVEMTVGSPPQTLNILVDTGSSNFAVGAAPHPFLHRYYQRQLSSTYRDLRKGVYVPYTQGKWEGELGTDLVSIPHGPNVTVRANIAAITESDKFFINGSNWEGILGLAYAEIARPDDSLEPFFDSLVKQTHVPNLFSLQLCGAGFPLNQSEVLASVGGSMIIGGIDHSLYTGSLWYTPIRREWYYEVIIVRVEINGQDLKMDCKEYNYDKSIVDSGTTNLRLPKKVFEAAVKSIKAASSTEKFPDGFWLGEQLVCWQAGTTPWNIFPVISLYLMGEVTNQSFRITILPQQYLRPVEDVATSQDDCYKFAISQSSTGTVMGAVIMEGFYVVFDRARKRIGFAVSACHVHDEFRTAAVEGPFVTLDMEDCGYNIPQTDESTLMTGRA
T4 sequence (P02786 89-760 G142S): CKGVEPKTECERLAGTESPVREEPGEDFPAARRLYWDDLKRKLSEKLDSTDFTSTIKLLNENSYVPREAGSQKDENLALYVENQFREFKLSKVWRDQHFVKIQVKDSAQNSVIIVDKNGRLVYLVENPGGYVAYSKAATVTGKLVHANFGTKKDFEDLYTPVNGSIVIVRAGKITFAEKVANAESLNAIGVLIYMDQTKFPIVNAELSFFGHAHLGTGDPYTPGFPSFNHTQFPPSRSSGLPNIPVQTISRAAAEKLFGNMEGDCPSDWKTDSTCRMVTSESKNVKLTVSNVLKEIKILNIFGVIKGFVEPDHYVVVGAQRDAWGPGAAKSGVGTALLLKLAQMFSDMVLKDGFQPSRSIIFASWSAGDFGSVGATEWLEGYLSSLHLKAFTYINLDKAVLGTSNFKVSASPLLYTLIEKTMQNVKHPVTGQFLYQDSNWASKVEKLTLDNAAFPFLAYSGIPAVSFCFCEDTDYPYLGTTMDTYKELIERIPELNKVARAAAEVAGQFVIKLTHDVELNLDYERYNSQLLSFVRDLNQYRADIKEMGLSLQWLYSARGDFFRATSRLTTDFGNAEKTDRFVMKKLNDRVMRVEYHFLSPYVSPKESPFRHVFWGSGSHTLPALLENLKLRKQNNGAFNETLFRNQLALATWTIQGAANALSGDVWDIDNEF
T2 sequence (single chain, as listed by the source limits assumed): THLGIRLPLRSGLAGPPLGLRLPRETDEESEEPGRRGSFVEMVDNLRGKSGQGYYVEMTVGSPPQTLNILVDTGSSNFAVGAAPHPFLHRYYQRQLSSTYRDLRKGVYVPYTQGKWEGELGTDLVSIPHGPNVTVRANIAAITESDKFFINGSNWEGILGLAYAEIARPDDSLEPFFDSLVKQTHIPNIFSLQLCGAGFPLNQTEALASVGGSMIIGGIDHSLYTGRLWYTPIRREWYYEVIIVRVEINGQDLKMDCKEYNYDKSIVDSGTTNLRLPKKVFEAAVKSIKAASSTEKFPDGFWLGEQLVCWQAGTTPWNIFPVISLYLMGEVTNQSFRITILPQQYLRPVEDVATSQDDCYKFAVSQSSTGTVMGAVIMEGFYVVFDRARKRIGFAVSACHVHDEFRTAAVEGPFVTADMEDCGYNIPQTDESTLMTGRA

Binder | Kd [1] | Kd [2] | Kd [3] | Kd [4] | IC50, Abeta x-40 in mouse cortical neurons [5] | maximal % inhibition of Abeta x-40 [5] | further results
6308 (antibody, V domains shown, anti-BACE1 IgG) VH: QLQLQESGPGLVKPSETLSLTCTVSGGSISWSSYYWSWIRQPPGKGLEWIGSIYRSGRTYYNPSLKSRVTISVDTSKNQFSLKLSSVTAADTAVYYCARVGHGINYFDLWGRGTLVTVSS VL: EIVLTQSPATLSLSPGERATLSCRASQSVSSYLAWYQQKPGQAPRLLIYDASKRATGIPARFSGSGSGTDFTLTISSLEPEDFAVYYCQQSLVWPPRTFGGGTKVEIK | < 0.15 nM | < 0.14 nM | < 0.17 nM | < 0.14 nM | 0.68 nM | 60% | 
6313 (antibody, V domains shown, anti-BACE1 IgG) VH: QLQLQESGPGLVKPSETLSLTCTVSGGSISRGSYYWGWIRQPPGKGLEWIGMIYYSGSTWYNPSLKSRVTISVDTSKNQFSLKLSSVTAADTAVYYCARVGHGVSYFDLWGRGTLVTVSS VL: EIVLTQSPATLSLSPGERATLSCRASQSVSSYLAWYQQKPGQAPRLLIYDASNRATGIPARFSGSGSGTDFTLTISSLEPEDFAVYYCQQAYVWPPRTFGGGTKVEIK | 0.27 nM | 0.41 nM | < 0.24 nM | < 0.21 nM | 2.78 nM | 67% | 
6314 (antibody, V domains shown, anti-BACE1 IgG) VH: QLQLQESGPGLVKPSETLSLTCTVSGGSISRGSYYWGWIRQPPGKGLEWIGMIYYSGSTWYNPSLKSRVTISVDTSKNQFSLKLSSVTAADTAVYYCARVGHGVSYFDLWGRGTLVTVSS VL: EIVLTQSPATLSLSPGERATLSCRASQSVSSYLAWYQQKPGQAPRLLIYDASNRATGIPARFSGSGSGTDFTLTISSLEPEDFAVYYCQQSIVWPPRTFGGGTKVEIK | 0.33 nM | 0.38 nM | < 0.26 nM | < 0.22 nM | 3.38 nM | 71% | 
6315 (antibody, V domains shown, anti-BACE1 IgG) VH: QLQLQESGPGLVKPSETLSLTCTVSGGSISRGSYYWGWIRQPPGKGLEWIGMIYYSGSTWYNPSLKSRVTISVDTSKNQFSLKLSSVTAADTAVYYCARVGHGVSYFDLWGRGTLVTVSS VL: EIVLTQSPATLSLSPGERATLSCRASQSVSSYLAWYQQKPGQAPRLLIYDASKRATGIPARFSGSGSGTDFTLTISSLEPEDFAVYYCQQSLVWPPRTFGGGAKVEIK | < 0.26 nM | < 0.25 nM | < 0.25 nM | < 0.21 nM |  | 73% | 
6309 (antibody, V domains shown, anti-BACE1 IgG) VH: QLQLQESGPGLVKPSETLSLTCTVSGGSISWSSYYWSWIRQPPGKGLEWIGSIYRSGRTYYNPSLKSRVTISVDTSKNQFSLKLSSVTAADTAVYYCARVGHGINYFDLWGRGTLVTVSS VL: EIVLTQSPATLSLSPGERATLSCRASQSVSSYLAWYQQKPGQAPRLLIYDASNRATGIPARFSGSGSGTDFTLTISSLEPEDFAVYYCQQSITWPPRTFGGGTKVEIK | 0.32 nM | 0.34 nM | 0.37 nM | 0.35 nM | 0.3 nM | 60% | 
6311 (antibody, V domains shown, anti-BACE1 IgG) VH: QLQLQESGPGLVKPSETLSLTCTVSGGSISWSSYYWSWIRQPPGKGLEWIGSIYRSGRTYYNPSLKSRVTISVDTSKNQFSLKLSSVTAADTAVYYCARVGHGINYFDLWGRGTLVTVSS VL: EIVLTQSPATLSLSPGERATLSCRASQSVSSYLAWYQQKPGQAPRLLIYDASNRATGIPARFSGSGSGTDFTLTISSLEPEDFAVYYCQQSLTWPPRTFGGGTKVEIK | 0.24 nM | 0.25 nM | 0.21 nM | 0.2 nM | 0.15 nM | 63% | 
F91A (antibody, V domains shown, also called 15G11.v5 F91A (CDR-L3) IgG) VH: EVQLVQSGAEVKKPGASVKVSCKASGYTFTSYWMHWVRQAPGQRLEWIGEINPTNGRTNYIEKFKSRATLTVDKSASTAYMELSSLRSEDTAVYYCARGTRAYHYWGQGTMVTVSS VL: DIQMTQSPSSLSASVGDRVTITCRASDNLYSNLAWYQQKPGKSPKLLVYDATNLADGVPSRFSGSGSGTDYTLTISSLQPEDFATYYCQHAWGTPLTFGQGTKVEIK |  |  |  |  |  |  | EC50 [6]: 0.953 µg/mL; EC50 [7]: 0.0458 µg/mL; Kd [8]: 228 nM; Kd [9]: 167 nM
F91A (Fab, V domains shown, also called 15G11.v5 F91A (CDR-L3) Fab) VH: EVQLVQSGAEVKKPGASVKVSCKASGYTFTSYWMHWVRQAPGQRLEWIGEINPTNGRTNYIEKFKSRATLTVDKSASTAYMELSSLRSEDTAVYYCARGTRAYHYWGQGTMVTVSS VL: DIQMTQSPSSLSASVGDRVTITCRASDNLYSNLAWYQQKPGKSPKLLVYDATNLADGVPSRFSGSGSGTDYTLTISSLQPEDFATYYCQHAWGTPLTFGQGTKVEIK |  |  |  |  |  |  | Kd [10]: 383 nM
Hu15G11.HC32A Fab (Fab, V domains shown, Fab) VH: EVQLVQSGAEVKKPGASVKVSCKASGYTFTSAWMHWVRQAPGQRLEWIGEINPTNGRTNYIEKFKSRATLTVDKSASTAYMELSSLRSEDTAVYYCARGTRAYHYWGQGTMVTVSS VL: DIQMTQSPSSLSASVGDRVTITCRASDNLYSNLAWYQQKPGKSPKLLVYDATNLADGVPSRFSGSGSGTDYTLTISSLQPEDFATYYCQHFWGTPLTFGQGTKVEIK |  |  |  |  |  |  | Kd [11]: 48 nM
W92A (antibody, V domains shown, also called 15G11.v5 W92A (CDR-L3) IgG; 15G11.W92A) VH: EVQLVQSGAEVKKPGASVKVSCKASGYTFTSYWMHWVRQAPGQRLEWIGEINPTNGRTNYIEKFKSRATLTVDKSASTAYMELSSLRSEDTAVYYCARGTRAYHYWGQGTMVTVSS VL: DIQMTQSPSSLSASVGDRVTITCRASDNLYSNLAWYQQKPGKSPKLLVYDATNLADGVPSRFSGSGSGTDYTLTISSLQPEDFATYYCQHFAGTPLTFGQGTKVEIK |  |  |  |  |  |  | EC50 [7]: 0.0118 µg/mL; Kd [8]: 123 nM; Kd [9]: 31 nM
T96A (antibody, V domains shown, also called 15G11.v5 T96A (CDR-H3) IgG; copies: 2 + 2) VH: EVQLVQSGAEVKKPGASVKVSCKASGYTFTSYWMHWVRQAPGQRLEWIGEINPTNGRTNYIEKFKSRATLTVDKSASTAYMELSSLRSEDTAVYYCARGARAYHYWGQGTMVTVSS VL: DIQMTQSPSSLSASVGDRVTITCRASDNLYSNLAWYQQKPGKSPKLLVYDATNLADGVPSRFSGSGSGTDYTLTISSLQPEDFATYYCQHFWGTPLTFGQGTKVEIK |  |  |  |  |  |  | EC50 [6]: 3.38 µg/mL; EC50 [7]: 0.274 µg/mL; Kd [8]: 433 nM; Kd [9]: 173 nM
W92A (Fab, V domains shown, also called 15G11.v5 W92A (CDR-L3) Fab) VH: EVQLVQSGAEVKKPGASVKVSCKASGYTFTSYWMHWVRQAPGQRLEWIGEINPTNGRTNYIEKFKSRATLTVDKSASTAYMELSSLRSEDTAVYYCARGTRAYHYWGQGTMVTVSS VL: DIQMTQSPSSLSASVGDRVTITCRASDNLYSNLAWYQQKPGKSPKLLVYDATNLADGVPSRFSGSGSGTDYTLTISSLQPEDFATYYCQHFAGTPLTFGQGTKVEIK |  |  |  |  |  |  | Kd [10]: 280 nM
Mu7A4.Fab (Fab, V domains shown, Fab; also called mouse 7A4 Fab) VH: QVQLQQSGPELVRPGVSVKISCKGSGYTFTDYAMHWVKQSHAKSLEWIGGISTYFGRTNYNQKFKGRATMTVDKSSSTAYMELARLTSEDSALYYCARGLSGNYVMDYWGQGTSVTVSS VL: DIVLTQSPASLAVSLGQRATISCRASESVDDYGNSFMHWYQQKPGQPPKLLIYRASNLESGIPARFSGSGSRTDFTLTINPVEADDVATYYCQQSNEAPPTFGGGTKLEIR |  |  |  |  |  |  | Kd [12]: 0.741 nM; koff [12]: 0.000845 s⁻¹; kon [12]: 1.14e+06 M⁻¹ s⁻¹; Kd [13]: 0.19 nM; koff [13]: 0.000313 s⁻¹; kon [13]: 1.65e+06 M⁻¹ s⁻¹; Cy/hu ratio [14]: 3.9
